According to patent US20250270343A1 (Alector, published 2025):

Legend:
[1] = target: T1, full-length untagged human GPNMB expressed on cells (human, UniProt Q14956 23-572); assay: cell-based or functional assay
T1 sequence: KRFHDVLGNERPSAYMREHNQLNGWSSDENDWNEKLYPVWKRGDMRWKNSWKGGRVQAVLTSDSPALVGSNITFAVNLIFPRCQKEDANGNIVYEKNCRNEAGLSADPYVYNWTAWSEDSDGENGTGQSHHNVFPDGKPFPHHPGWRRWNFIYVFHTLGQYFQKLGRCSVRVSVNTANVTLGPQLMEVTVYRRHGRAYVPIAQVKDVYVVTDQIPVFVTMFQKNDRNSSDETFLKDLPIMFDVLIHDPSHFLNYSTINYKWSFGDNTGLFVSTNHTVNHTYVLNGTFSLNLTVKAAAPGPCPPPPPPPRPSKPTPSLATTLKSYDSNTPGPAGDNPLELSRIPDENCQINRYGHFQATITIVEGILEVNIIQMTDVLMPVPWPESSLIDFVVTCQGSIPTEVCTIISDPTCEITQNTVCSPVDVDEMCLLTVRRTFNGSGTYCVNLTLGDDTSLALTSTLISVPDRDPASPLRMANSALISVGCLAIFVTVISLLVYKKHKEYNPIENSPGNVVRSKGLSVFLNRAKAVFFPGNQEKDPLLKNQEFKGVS

[2] = target: T2, soluble human GPNMB (recombinant extracellular domain) (human, UniProt Q14956 23-498); assay: SPR Biacore, IgG captured
T2 construct: also called huGPNMB; recombinant human GPNMB extracellular domain; not shown: C-terminal polyhistidine or Avi-His tag
T2 sequence: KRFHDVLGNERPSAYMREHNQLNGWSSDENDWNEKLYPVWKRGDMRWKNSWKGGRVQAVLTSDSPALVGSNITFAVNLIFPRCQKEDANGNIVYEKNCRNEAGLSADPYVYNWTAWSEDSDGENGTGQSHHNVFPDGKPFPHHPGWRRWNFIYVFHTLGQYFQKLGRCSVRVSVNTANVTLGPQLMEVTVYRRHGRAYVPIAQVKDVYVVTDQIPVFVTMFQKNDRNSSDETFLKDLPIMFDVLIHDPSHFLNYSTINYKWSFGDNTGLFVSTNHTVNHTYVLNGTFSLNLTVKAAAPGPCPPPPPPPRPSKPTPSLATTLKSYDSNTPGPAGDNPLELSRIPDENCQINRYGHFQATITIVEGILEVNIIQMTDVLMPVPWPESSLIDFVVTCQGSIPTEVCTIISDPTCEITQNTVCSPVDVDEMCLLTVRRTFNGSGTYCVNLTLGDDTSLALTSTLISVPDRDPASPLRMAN

[3] = target: T3, soluble mouse GPNMB (recombinant extracellular domain) (mouse, UniProt Q99P91 23-502); assay: SPR Biacore, IgG captured
T3 construct: also called moGPNMB; not shown: C-terminal polyhistidine or Avi-His tag
T3 sequence: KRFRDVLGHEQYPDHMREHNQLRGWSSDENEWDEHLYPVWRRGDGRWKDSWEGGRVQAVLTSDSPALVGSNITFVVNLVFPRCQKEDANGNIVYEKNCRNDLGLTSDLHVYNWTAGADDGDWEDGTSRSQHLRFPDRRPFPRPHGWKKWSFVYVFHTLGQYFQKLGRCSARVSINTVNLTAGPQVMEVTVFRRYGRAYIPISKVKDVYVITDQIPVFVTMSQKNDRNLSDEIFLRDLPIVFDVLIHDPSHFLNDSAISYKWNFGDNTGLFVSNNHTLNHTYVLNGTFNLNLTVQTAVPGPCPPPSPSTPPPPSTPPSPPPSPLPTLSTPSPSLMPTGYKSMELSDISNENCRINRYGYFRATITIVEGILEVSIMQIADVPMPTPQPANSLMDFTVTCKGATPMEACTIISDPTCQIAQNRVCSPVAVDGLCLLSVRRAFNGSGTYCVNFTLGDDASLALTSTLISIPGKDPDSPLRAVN

[4] = target: T4, soluble cynomolgus GPNMB (recombinant extracellular domain) (cynomolgus, UniProt Q14956 23-499 (human entry), limits assumed); assay: SPR Biacore, IgG captured
T4 chain: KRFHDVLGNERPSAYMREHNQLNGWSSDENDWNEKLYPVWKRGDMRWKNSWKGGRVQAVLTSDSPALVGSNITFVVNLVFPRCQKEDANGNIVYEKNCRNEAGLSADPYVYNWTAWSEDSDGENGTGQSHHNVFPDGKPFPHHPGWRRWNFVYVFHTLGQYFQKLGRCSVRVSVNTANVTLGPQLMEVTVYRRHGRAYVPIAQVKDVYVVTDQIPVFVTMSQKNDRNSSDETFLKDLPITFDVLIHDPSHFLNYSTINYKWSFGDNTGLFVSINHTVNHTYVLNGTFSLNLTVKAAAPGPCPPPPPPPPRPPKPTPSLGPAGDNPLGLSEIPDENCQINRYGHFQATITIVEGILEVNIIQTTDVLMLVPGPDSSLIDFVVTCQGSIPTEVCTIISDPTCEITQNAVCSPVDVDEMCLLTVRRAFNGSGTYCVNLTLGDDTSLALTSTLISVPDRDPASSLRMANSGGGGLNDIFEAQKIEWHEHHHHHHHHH

[5] = target: T1, full-length untagged human GPNMB …; assay: cell-based or functional assay; remark: listed apart in the source

| Binder | EC50 GCase [1] | EC50 Lyso Tracker [1] | Fold Decrease Lyso Tracker (max response at 1 µg/ml) [1] | Fold Increase GCase (max response at 1 µg/ml) [1] | Kd [2] | koff [2] | kon [2] | Kd [3] | koff [3] | kon [3] | Kd [4] | koff [4] | kon [4] | Inflammasome: Fold Decrease IL-1β (max response at 0.3 µg/ml) [5] |
| --- | --- | --- | --- | --- | --- | --- | --- | --- | --- | --- | --- | --- | --- | --- |
| anti-GPNMB antibody GPN-90 (antibody, V domains shown) VH: QVQLQESGPGLVKPSETLSLTCTVSGISITTGNYRWSWIRQPPGKGLEWIGYIDYSGTITYNPSLKQRVTITRDTSKNQFSLELSSVTAADTAVYYCARDLTHWYFDVWGQGTLVTVSS VL: DIVMTQSPDSLAVSLGERATINCKSSRSVDYYGIGFLNWYQQKPGQPPKLLIYATSHQGSGVPDRFSGSGSGTDFTLTISSLQAEDVAVYYCQQQKEVPPTFGGGTKVEIK | 0.685 nM | 1.58 nM | 0.761 fold | 1.37 fold | 2.8 nM | 0.00053 s⁻¹ | 190000 M⁻¹ s⁻¹ | 0.7 nM | 0.00011 s⁻¹ | 160000 M⁻¹ s⁻¹ | 3.2 nM | 0.00051 s⁻¹ | 160000 M⁻¹ s⁻¹ | 0.564 fold |
| anti-GPNMB antibody GPN-86 (antibody, V domains shown) VH: QVQLQESGPGLVKPSETLSLTCTVSGISITTGNYRWSWIRQPPGKGLEWIGYIDYSGTITYNPSLKSRVTITRDTSKNQFSLELSSVTAADTAVYYCARDLTHWYFDVWGQGTLVTVSS VL: DIVMTQSPDSLAVSLGERATINCKSSRSVDYYGIGFLNWYQQKPGQPPKLLIYATSKQGSGVPDRFSGSGSGTDFTLTISSLQAEDVAVYYCQQQKEVPPTFGGGTKVEIK | 0.166 nM | 1.2 nM | 0.731 fold | 1.34 fold | 4.5 nM | 0.0012 s⁻¹ | 260000 M⁻¹ s⁻¹ | 1.2 nM | 0.00023 s⁻¹ | 190000 M⁻¹ s⁻¹ | 5.5 nM | 0.0011 s⁻¹ | 190000 M⁻¹ s⁻¹ | 0.404 fold |
